The values that follow are results of earlier work, collected in article PMC8699243.

The target of data set [1] is t-PA (Homo sapiens) (UniProt P00750).
In data set [2] the target is plasminogen (Homo sapiens) (UniProt P00747).
Data set [3] has as its target t-PA (Homo sapiens) (UniProt P00750). The source holds these as a separate data set.
Data set [4] addresses plasminogen (Homo sapiens) (UniProt P00747). The source holds these as a separate data set.
The next data set addresses S100A4 (Homo sapiens) (UniProt P26447).
Sequence of UniProt P26447 (P26447 2-101): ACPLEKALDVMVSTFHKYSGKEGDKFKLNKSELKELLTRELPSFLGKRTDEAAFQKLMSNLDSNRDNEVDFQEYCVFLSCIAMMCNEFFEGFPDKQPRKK
A further data set concerns the target S100A10 (Homo sapiens) (UniProt P60903).

Where two headings read alike, the source gives them in different places.

Sequence of UniProt P00747 (P00747 20-810): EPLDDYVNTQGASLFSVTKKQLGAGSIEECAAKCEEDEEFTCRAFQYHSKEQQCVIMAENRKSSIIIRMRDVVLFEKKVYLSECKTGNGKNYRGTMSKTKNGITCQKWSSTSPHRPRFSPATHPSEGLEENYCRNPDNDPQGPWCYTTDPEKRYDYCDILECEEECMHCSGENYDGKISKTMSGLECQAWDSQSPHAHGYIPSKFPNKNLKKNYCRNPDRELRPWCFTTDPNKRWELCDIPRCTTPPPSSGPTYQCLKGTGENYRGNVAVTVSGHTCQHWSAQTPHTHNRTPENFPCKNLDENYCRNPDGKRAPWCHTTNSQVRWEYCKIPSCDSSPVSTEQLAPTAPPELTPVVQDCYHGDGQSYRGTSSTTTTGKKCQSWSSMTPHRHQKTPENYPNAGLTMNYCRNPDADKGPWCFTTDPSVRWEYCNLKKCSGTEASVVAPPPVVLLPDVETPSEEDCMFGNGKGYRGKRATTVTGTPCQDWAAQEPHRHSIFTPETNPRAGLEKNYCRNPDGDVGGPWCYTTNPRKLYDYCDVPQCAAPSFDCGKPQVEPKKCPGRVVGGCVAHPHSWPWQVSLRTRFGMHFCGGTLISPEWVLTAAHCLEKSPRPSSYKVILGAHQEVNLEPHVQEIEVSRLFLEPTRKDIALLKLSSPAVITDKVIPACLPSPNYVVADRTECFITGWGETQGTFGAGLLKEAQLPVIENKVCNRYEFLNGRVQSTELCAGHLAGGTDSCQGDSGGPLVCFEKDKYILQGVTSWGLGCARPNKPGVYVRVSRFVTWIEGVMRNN
Sequence of UniProt P00750 (P00750 36-562): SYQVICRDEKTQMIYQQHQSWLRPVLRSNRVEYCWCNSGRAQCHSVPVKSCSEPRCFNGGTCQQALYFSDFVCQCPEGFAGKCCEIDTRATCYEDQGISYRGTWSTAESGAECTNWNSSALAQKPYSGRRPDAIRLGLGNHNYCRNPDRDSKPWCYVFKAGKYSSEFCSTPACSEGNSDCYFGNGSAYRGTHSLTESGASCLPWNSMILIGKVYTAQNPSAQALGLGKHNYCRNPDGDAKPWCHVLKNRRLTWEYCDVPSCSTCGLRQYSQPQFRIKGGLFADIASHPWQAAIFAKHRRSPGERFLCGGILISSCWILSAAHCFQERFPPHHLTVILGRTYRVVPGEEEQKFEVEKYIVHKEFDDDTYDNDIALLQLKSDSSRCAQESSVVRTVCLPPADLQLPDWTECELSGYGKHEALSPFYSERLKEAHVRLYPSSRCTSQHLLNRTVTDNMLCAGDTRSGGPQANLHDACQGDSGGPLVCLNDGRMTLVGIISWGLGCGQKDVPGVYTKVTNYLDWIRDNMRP

Take S100A10 (from UniProt P60903): the Kd with t-PA (Homo sapiens) [1] is 450 nM; in data set [2] it was 1810 nM.
For “AIIt (Annexin A2/S100A10 heterotetramer) (from UniProt P07355)”, the Kd with t-PA (Homo sapiens) [3] was 680 nM; in data set [4], 110 nM.
Annexin A2 (from UniProt P07355): the figures for the Kd in the data set with S100A4 (Homo sapiens) and with S100A10 (Homo sapiens) were 5 µM and 13 nM, respectively.
